Measurements as given in patent US20260125472A1 (HEFEI TG IMMUNOPHARMA, published 2026).

Key:
[1] = biological target: T1, Trop2 protein (UniProt P09758 27-274); assay: ELISA, coated Trop2 protein, OD450
T1 construct: Bought recombinant protein; also called Trop2-Biotin protein (biotin-labelled, bridging ELISA)
T1 sequence (looked up): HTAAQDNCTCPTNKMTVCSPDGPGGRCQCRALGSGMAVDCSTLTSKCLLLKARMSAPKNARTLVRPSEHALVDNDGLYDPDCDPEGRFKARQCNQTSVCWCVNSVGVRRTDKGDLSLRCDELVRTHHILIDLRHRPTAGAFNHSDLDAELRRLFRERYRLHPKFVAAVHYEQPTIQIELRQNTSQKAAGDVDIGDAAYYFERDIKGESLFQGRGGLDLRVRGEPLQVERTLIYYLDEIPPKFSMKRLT
Source text: In this example, the binding properties of the CD3×Trop2 and CD3×PDL1 bispecific antibody (the production method and the amino acid sequences of the heavy and light chains were shown in Example 1) were detected by using ELISA. The CD3E&D, Trop2, or PDL1 protein was coated onto 96-well plates by inventors, and the strength of the signal after the addition of the antibody was used to determine the binding properties of the antibody and the corresponding protein.
(2) Trop2 protein (purchased from Acro) was diluted to 2 μg/ml with PBS buffer, added to a 96-well plate at a volume of 100 μL/well, and placed at 4° C. overnight. The PBS buffer in the 96-well plate was aspirated, and the plate was washed 6 times with PBST (pH 7.2 PBS containing 0.1% Tween 20) buffer. Then, 200 μL/well PBS/10% BSA was added and incubated at 37° C. for 2 h for blocking. The blocking solution was removed, and the plate was washed six times with PBST. Then, the to-be-tested bispecific antibodies, Cross3×Trop2, Cross303×Trop2, Cross307×Trop2, Cross308×Trop2, Cross309×Trop2, Cross310×Trop2, Cross311×Trop2, Cross312×Trop2, Cross313×Trop2, Cross314×Trop2, Cross316×Trop2, Cross317×Trop2, Cross318×Trop2, Cross323×Trop2, Cross325×Trop2, Cross326×Trop2, and control IgG1LALA (purchased from Bio-Tech), serially diluted with PBST/0.05% BSA, were added at 100 μL/well and incubated at 37° C. for 1 h. The reaction system was removed, and the plate was washed 6 times with PBST. Then, HRP (horseradish peroxidase)-labeled anti-human secondary antibody (Fab specific) (purchased from Sigma) diluted with PBST/0.05% BSA at 100 μL/well. After the plate was washed six times with PBST, TMB (tetramethylbenzidine) was added at 80 μL/well, and incubated at room temperature for 3 min. 4 M sulfuric acid was added at 80 μL/well to terminate the reaction. The absorbance was read at 450 nm using a microplate reader.

[2] = biological target: T2, Trop2 on A-375-Trop2 melanoma cells (UniProt P09758 27-323, limits assumed); assay: flow cytometry, A-375-Trop2 cells, MFI [panel B]
T2 construct: whole, on cells
T2 sequence (looked up): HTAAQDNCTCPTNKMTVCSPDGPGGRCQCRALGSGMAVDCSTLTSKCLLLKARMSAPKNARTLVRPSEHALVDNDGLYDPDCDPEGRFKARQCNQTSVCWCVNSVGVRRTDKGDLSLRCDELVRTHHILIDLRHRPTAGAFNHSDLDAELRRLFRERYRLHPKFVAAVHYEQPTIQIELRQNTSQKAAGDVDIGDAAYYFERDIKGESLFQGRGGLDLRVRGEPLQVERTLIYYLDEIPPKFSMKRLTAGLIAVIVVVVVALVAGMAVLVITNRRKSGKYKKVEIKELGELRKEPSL
Experimental: (2) The tumor cells were diluted to 2×10⁶/ml with PBS and added to a 1.5 ml EP tube at a volume of 100 μl/tube, and goat serum was added thereto at 10 μl/tube. The cells were blocked at 4° C. for 30 min. The serially diluted bispecific antibodies, Cross3×Trop2, Cross303×Trop2, Cross307×Trop2, Cross308×Trop2, Cross309×Trop2, Cross310×Trop2, Cross311×Trop2, Cross312×Trop2, Cross313×Trop2, Cross314×Trop2, Cross316×Trop2, Cross317×Trop2, Cross318×Trop2, Cross323×Trop2, Cross325×Trop2, Cross326×Trop2, and Cross3×PDL1, Cross303×PDL1, Cross307×PDL1, Cross308×PDL1, Cross309×PDL1, Cross310×PDL1, Cross311×PDL1, Cross312×PDL1, Cross313×PDL1, Cross314×PDL1, Cross316×PDL1, Cross317×PDL1, Cross318×PDL1, Cross323×PDL1, Cross325×PDL1, Cross326×PDL1, and control hIgG1LALA (purchased from Bio-Tech) were added and incubated at 4° C. for 30 min. 1 ml of PBS was added to the EP tube, followed by centrifugation at 3500 rpm for 5 min at 4° C. The supernatant was discarded, and the cells were washed again with PBS. After centrifugation, the supernatant was completely discarded, and the cells were resuspended with PBS at 100 μl/tube. Alexa-647-labeled goat anti-human IgG secondary antibody (purchased from Jackson lab) was added at 1 μl/tube and incubated at 4° C. in the dark for 30 min. The cells were washed twice with PBS, and the supernatant was completely discarded after centrifugation. The cells were resuspended with PBS at 200 μl/tube and assay was performed using the flow cytometry.

[3] = biological target: T3, CD3 on CD8 T cells (Homo sapiens (Human), UniProt P07766 23-207); assay: flow cytometry, CD8 T cells in PBMCs, binding ratio % [panel A]
T3 construct: Native CD3 complex on CD8 T cells among PBMCs; also called T cells (PBMCs gated with anti-human CD8 antibody)
T3 sequence (P07766 23-207 limits assumed): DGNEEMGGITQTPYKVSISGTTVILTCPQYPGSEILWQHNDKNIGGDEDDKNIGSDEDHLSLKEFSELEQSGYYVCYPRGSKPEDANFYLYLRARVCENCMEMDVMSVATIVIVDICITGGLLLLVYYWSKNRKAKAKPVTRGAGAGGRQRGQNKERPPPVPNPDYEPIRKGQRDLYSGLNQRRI

B1: Cross311×Trop2 (bispecific antibody)
scFv: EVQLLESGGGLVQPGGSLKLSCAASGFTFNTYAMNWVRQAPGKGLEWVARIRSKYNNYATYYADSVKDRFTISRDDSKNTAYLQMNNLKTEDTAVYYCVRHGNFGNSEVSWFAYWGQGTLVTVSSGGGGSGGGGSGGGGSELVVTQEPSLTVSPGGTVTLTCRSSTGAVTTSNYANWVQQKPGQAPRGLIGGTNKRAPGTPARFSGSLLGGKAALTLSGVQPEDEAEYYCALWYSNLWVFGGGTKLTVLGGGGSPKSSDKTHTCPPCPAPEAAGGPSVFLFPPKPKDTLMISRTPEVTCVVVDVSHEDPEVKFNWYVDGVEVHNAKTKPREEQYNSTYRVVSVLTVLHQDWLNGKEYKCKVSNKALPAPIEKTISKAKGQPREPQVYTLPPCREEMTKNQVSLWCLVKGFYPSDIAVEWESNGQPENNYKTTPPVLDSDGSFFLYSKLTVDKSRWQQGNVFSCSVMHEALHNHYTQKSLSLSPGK
heavy: QVQLQQSGSELKKPGASVKVSCKASGYTFTNYGMNWVKQAPGQGLKWMGWINTYTGEPTYTDDFKGRFAFSLDTSVSTAYLQISSLKADDTAVYFCARGGFGSSYWYFDVWGQGSLVTVSSASTKGPSVFPLAPSSKSTSGGTAALGCLVKDYFPEPVTVSWNSGALTSGVHTFPAVLQSSGLYSLSSVVTVPSSSLGTQTYICNVNHKPSNTKVDKKVEPKSSDKTHTCPPCPAPEAAGGPSVFLFPPKPKDTLMISRTPEVTCVVVDVSHEDPEVKFNWYVDGVEVHNAKTKPREEQYNSTYRVVSVLTVLHQDWLNGKEYKCKVSNKALPAPIEKTISKAKGQPREPQVCTLPPSREEMTKNQVSLSCAVKGFYPSDIAVEWESNGQPENNYKTTPPVLDSDGSFFLVSKLTVDKSRWQQGNVFSCSVMHEALHNHYTQKSLSLSPGK
light: DIQLTQSPSSLSASVGDRVSITCKASQDVSIAVAWYQQKPGKAPKLLIYSASYRYTGVPDRFSGSGSGTDFTLTISSLQPEDFAVYYCQQHYITPLTFGAGTKVEIKRTVAAPSVFIFPPSDEQLKSGTASVVCLLNNFYPREAKVQWKVDNALQSGNSQESVTEQDSKDSTYSLSSTLTLSKADYEKHKVYACEVTHQGLSSPVTKSFNRGEC
Q: B1 was tested. Which “EC50 (read off the curve)” value [1] did it give?
A: ~0.008 mg/L

Q: What about the “EC50 (read off the curve)” value [2] of the same binder?
A: ~1 mg/L

Q: And the “EC50 (read off the curve)” value [3]?
A: ~0.7 mg/L
